Experimental data: the DeepSol protein solubility set

Test: soluble on expression in E. coli; label from the status in PepcDB or PDB records

Sequence | soluble on expression in E. coli
AQEVLRRTPLYDFHLAHGGKMVAFAGWSLPVQYRDSHTDSHLHTRQHCSLFDVSHMLQTKILGSDRVKLMESLVVGDIAELRPNQGTLSLFTNEAGGILDDLIVTNTSEGHLYVVSNAGCWEKDLALMQDKVRELQNQGRDVGLEVLDNALLALQGPTAAQVLQAGVADDLRKLPFMTSAVMEVFGVSGCRVTRCGYTGEDGVEISVPVAGAVHLATAILKNPEVKLAGLAARDSLRLEAGLCLYGNDIDEHTTPVEGSLSWTLGKRRRAAMDFPGAKVIVPQLKGRVQRRRVGLMCEGAPMRAHSPILNMEGTKIGTVTSGCPSPSLKKNVAMGYVPCEYSRPGTMLLVEVRRKQQMAVVSKMPFVPTNYYTLK | soluble
MSAPVADAPAAEIVYKIISSDGVVSKMSEKAVQQSKTLSNLIENLGYTIENIETRDPIPVTNVNGKTMAKVAELCEKHKADAIPEDNMNVLKTLTIPEWDQKFLKIEDEALFDLILASNFLDIKGLMYYGCKTVSNMAKGKTTAELREIFGINTDEQDAAEETAQKAAAEVA | not soluble
MGSDKIHHHHHHMTIHISTAPCCWGVDDVKNPYLPAWRDVLGEASEAGYRGVELGPYGYLPLDPAVVSAALGENRLHVVAGTVFDDLVTLTNLPSLLRQTHDICALLKQLPPIDKEPGQRFAGPYLVIIDWGHEERDYAAGHSELAQRLDDGAWQTMMEHIRAICQIAWHEYGIRPVIHPHAGGYIEFADELARLVDDIPDDVAGLCLDTGHLYYAGMDPAASLRTYADRLDYIHFKDIDQSVFDDVMKQRIKFFDACARGVMCPIGRGVIDYPSLYRLIQTLGYEGYITVEQERDPRNANGSLEDVRSSRTYLANVGF | not soluble
MSADFEQLVAQFERFQARMTRVEQQFAGVDDMRQRLAELEVAATSADRSVTVVAGPSGAILDIRLTEQAVRKPAHALAGELMSTLRKAVAEAARRQAGIVDGALGEAFGDDLDLTEQVLETQAELFGMSKEELRAVTAEEATTAPQQGPPAPPARPTPPSPGQPQGGPVPGRPEPGQARTGGPQPGRPHSGRQQSGQPQPGRPQSGQPQPGRPQSGQPQPGKSQPGTSQPGQARPGQSGPAQRPQGGEPQQEDFSERNFMKDDWKQSGSKAQPPGPGGKQDDRFLNLYDDEDGR | not soluble
MNIATRPADYWQAIIFDFDGVIVESGDIKAQAFAELYRHHGETIAQAAVTYHRANGGMSRYLKFHYFQQNLLNYPPLTKEEEQELDRRFSELVMNAVISCQPVAGAEALLHRMVDQIPLFVASGTPESELRIIVEQRDLSRYFTEVRGSPRLKETLVADILSAYPLVPERVLMIGDALVDYESAHQNGIAFLGRVRPGDDNPFPESVEIVPDLCPVAI | soluble
MSIRILPENEIKPSASAFEIPPLLFANPKNLYTRRAKRLRELAKNNPLRDYLEFAAHLVDIQLTLLETAPIGNYAEKLTAYLTENQGQKPLNKQQFARDEKWLELLLALIKQCKPYATGAILTTLEFLEKASYAELNNLADHLLNERYEQVSPDQSVFIWLALSLYWTQLAQQLPRHTQAEIGERHTCPVCGSAPITSVIHLDKTQGLRYLHCALCESEWNMTRAQCSNCDESGDLNYWSFDTVEAPIKAESCGDCHSYLKVLYQEKDPYVEPLADDLASLMLDIEMEQKGFVRSGLNPFLFSIE | not soluble
MAHHHHHHMHPVPQAPYLSSPSPLFPNRGWCWQRPLRIFCPFFSAPLRAASSRRCHRPFLSIRFKKRCCNNPLLLGVVEAILPEPHSPAIPPVILRVFTPPS | not soluble
MPSPTVTSPQVAVNDIGSSEDFLAAIDKTIKYFNDGDIVEGTIVKVDRDEVLLDIGYKTEGVIPARELSIKHDVDPNEVVSVGDEVEALVLTKEDKEGRLILSKKRAQYERAWGTIEALKEKDEAVKGTVIEVVKGGLILDIGLRGFLPASLVEMRRVRDLQPYIGKEIEAKIIELDKNRNNVVLSRRAWLEQTQSEVRSEFLNNLQKGTIRKGVVSSIVNFGAFVDLGGVDGLVHVSELSWKHIDHPSEVVQVGDEVTVEVLDVDMDRERVSLSLKATQEDPWRHFARTHAIGQIVPGKVTKLVPFGAFVRVEEGIEGLVHISELAERHVEVPDQVVAVGDDAMVKVIDIDLERRRISLSLKQANEDYTEEFDPAKYGMADSYDEQGNYIFPEGFDAETNEWLEGFEKQRAEWEARYAEAERRHKMHTAQMEKFAAAETAGRGADDQSSASSAPSEKTAGGSLASDAQLAALREKLAGSALEHHHHHH | not soluble
TGKKAILRLSKRAMHLEWKLVKEIIFLGTSGFVMSVTNGFVQIVCNATLQRYGGDIYVGIMTVINSVREIVTMPVTGLTAASQPVIGYNYGAGCYQRVKSA | not soluble
MGHHHHHHSHMSHIFDASVLAPHIPSNLPDNFKVRPLAKDDFSKGYVDLLSQLTSVGNLDQEAFEKRFEAMRTSVPNYHIVVIEDSNSQKVVASASLVVEMKFIHGAGSRGRVEDVVVDTEMRRQKLGAVLLKTLVSLGKSLGVYKISLECVPELLPFYSQFGFQDDCNFMTQRF | not soluble
MYIDKDDFTAWMERIMDRFDMQDKKIDRVIKGRNCLDGEELLDNQDLCLLLKVAPRTLTRYRKKGILPFLMLDGRCYYRATDVHKLIREKTD | not soluble
MKKLTKGLGILLASSLVLGLAACGGGSDDKALSTEKITIGTTAGPHQQIAEEVQKLAKKDGLEIKIKTFDDYNTPNTALNDGDLDANNYQTIPFLEQQKKDKGYKLDVAFKTVAFPMGIYSNDIKDLKNLKKGDKIAVPNDPSNEYRGLKLFEDAGVIKLKDGVEEKATKKDIAENPLDLEIVELEASQIPAQLDEVAAAAINTNFAMGAGLSINKDAIYHEPTKDNPYPNVFVVRSANKDDEVVKTLEKYYHSDEVKAFIEKEFNGSVVPAFLEHHHHHH | soluble
MQDRQKAQDYRALLLADTPLIDVRAPIEFEQGAMPGAINLPLMMDDERAAVGTCYKRQGADAALALGHRLVCGDIRQQRLEAWKAAYQRFPNGYLCCARGGQRSHIVQRWLQETGIDCPLIEGGYKALRQTAIQATWQLAQKPILLIGGCTGSGKTQLVRQQPNGVDLEGLARHRGSSFGRTLNPQLSQASFENKLAVELLKINARQTLKRWVLEDEGRTIGANHLPECLRERMAQAPIAVVEDPFALRLERLREEYFIRMHHDFTHAYGDEAGWQAYSEYLHHGLFAIRRRLGLQRFAELTDTLDRALAEQLSSGSTDGHMAWLVPLLNEYYDPMYRYQLEKKAANIVFRGTWQDVANWLKAQ | not soluble
MEKVEHLNLNIQNILEDVDIDTASSSSDDEPEQAVVKQEKLEAGEQIEEQYDTDSDYDDDIVEFAEATGDFTKKLNAARLNTIGPNAARNRLTVDVERHADTSEDRKRKRVKDRADRATVEQVLDPRTRLVLFRLLQRGTLLNIDGCISTGKEANVYHATGTDNDLAIKIYKTSILTFKDRERYVTGEFRYRHGYCKSNPRKMVAVWAEKEMRNLARMHEVGLPVPKPHLLKGHVLVMDFLGKDGWPAPLLKNANLSQEDAEPMYVGLVRDMRRLYRECKLVHADLSEFNMLVHDGKLWIIDVSQSVEQDHPHALEFLRMDCNNVNKFFRELGVPVLSVRRLFEVIVDPLMSSKEMETIIEEERVLVNSEDDSLFMNAFIPHKLEHVLHFERDGKLAKEGVEANNPFQNIVSKIDLKGDGFGEEHDDSDDNDDEENGKKSRKKRAEPTEEEIQEKERKIAMHTRNREETAEERKERKAAVKEEKREQRKEKIPKHLKKRAHRQHMKYQSSPWSTLINCLHTLVP | not soluble
MAHHHHHHMASYQYFSYIDLYKVNNVNLDPFTEVFNDKFYLRYIYKWPHMNIITKEIDDHTSGYILGKEEGFGQDYHGHVTALSIEEDSRRTGKGVDLMTEFEKITQIIHKGNFVDLFVRVSNNPAINMYKKLGYVINEEINNYYCGNESALDMRKYLDITNS | soluble
MSLNGSMVYGDFIRNQEVRKRITKEELGIEEDEIPERVVVTPMPFNTQFPKNFEDTLTNLGIKVNRLKVEDQILRQFGGNLLLEKDGNRGFIAFIGRGLIDFTERIRILATVSRIKDILFIGTAGSLSNEILIGDLNIPKYAIPFENVSDFYADPTIAIPQADEKLLNEVYEYAEETGVKTHSTLHATLLFPYSETTEFLNYLLNIGVSTIDMEVSAFYKMSRFYGKRAVAVLRISDMPLIELHKQEELIKARREIAVNAVFRITLRFLKLEGHHHHHH | soluble
MGSDKIHHHHHHMVSRRISEIPISKTMELDAKAKALIKKGEDVINLTAGEPDFPTPEPVVEEAVRFLQKGEVKYTDPRGIYELREGIAKRIGERYKKDISPDQVVVTNGAKQALFNAFMALLDPGDEVIVFSPVWVSYIPQIILAGGTVNVVETFMSKNFQPSLEEVEGLLVGKTKAVLINSPNNPTGVVYRREFLEGLVRLAKKRNFYIISDEVYDSLVYTDEFTSILDVSEGFDRIVYINGFSKSHSMTGWRVGYLISSEKVATAVSKIQSHTTSCINTVAQYAALKALEVDNSYMVQTFKERKNFVVERLKKMGVKFVEPEGAFYLFFKVRGDDVKFCERLLEEKKVALVPGSAFLKPGFVRLSFATSIERLTEALDRIEDFLNSR | soluble
MNVLDEPDRLHGAHVPIRRGSVRQLQWWEPTPAERVRVLAWTCDCQARFYELCQSGGMVYIRRTVQKDPEPEISETHRWPVQEGWRVWFDLLTGEVR | not soluble
MGSDKIHHHHHHMTLTSDSWLTLIVSLPSASATARMRIWRAVKALGCAALRDGAYLLPAQAEQAAQLQMLADEALQEGGQAWLLQVQALDLAEQATFQALFDRTADYTPWLEELAQARQTLSALSAAELQRTQRKHARAYEVIRKIDFFPGETSIRADAQWRDFANALESMQSPGEPQPMAGRIARRDRMQYQGRVWATRRHLWVDRVASAWLIQRFIDPHARFLWLNTAADCPSDALGFDFDGATFSHVGERVTFEVLLASFGLEDDRGLSRLGAMVHALDVGGATTPEASGFEAVLAGARKRWPDDDALLVDIGGVLDSLHAHFSSSRKT | not soluble
MPNVKDITRESWILSTFPEWGTWLNEEIEEEVVAEGNFAMWWLGNCGVWIKTPGGANVVMDLWSNRGKSTKKVKDMVRGHQMANMAGVRKLQPNLRAQPMVIDPFAINELDYYLVSHFHSDHIDINTAAAIINNPNLDHVKFVGPYECGEIWKKWGVPEERIIVIKPGESFEFKDIKVTAVESFDRTCLVTLPVDGAEEHDGELAGLAVTDEEMARKAVNYIFETPGGTIYHGADSHFSNYFAKHGKDYKIDVAINNYGDNPVGIQDKMTSIDLLRMAENLRAKVIIPVHYDIWSNFMASTDEILQLWKMRKERLQYDFHPFIWEVGGKYTYPQDKDRIEYHHPRGFDDCFEQESNIQFKALLMAGDPLEHHHHHH | soluble
STHSELMEKFLTDYLNDLQGRNDDDASGTWDFYGSSVCEPDDESGYDVLANPPGPEDQDDDDDAYSDVFEFEFSETPLLPCYNIQVSVAQGPRNWLLLSDVLKKLKMSSRIFRCNFPNVEIVTIAEAEFYRQVSASLLFSCSKDLEAFNPESKELLDLVEFTNEIQTLLGSSVEWLHPSDLASDNYW | soluble
TSGTLYLVPTPIGNLQDMTFRAVATLKEVDFICAEDTRNTGLLLKHFDIATKQISFHEHNAYEKIPDLIDLLISGRSLAQVSDAGMPSISDPGHDLVKAAIDSDIAVVALPGA | not soluble
MAFPRRLLSLSLRVKDLEAALFFYRDLLGLKVEADPPRYRLFPEGRGFLLELLHDPEAPLRPYPSLGLYHFALLLPHRKALAGVFRRLLEAGAHFEGAADHGVSEALYFRDPEGNGLELYRDRPKEAWPKGPLMFTAPLNLEKLLAENPDPTPLPPETLLGHLHLHVEDLAAAEAFFNGKLGMEVTLRTYPGALFFAWDGYHHHVGANTWAGRRKAPPGATGLLGYTLLAPPGVPPGEHPDPTGALARVLTEPPPSP | soluble
MHRHVVTKVLPYTPDQLFELVGDVDAYPKFVPWITGMRTWNGRVDGAVSTVDAEAQVGFSFLREKFATRKRRDKDARSIDVSLLYGPFKRLNNGWRFMPEGDATRVEFVIEFAFKSALLDAMLAANVDRAAGKLIACFEARAQQLHGALEHHHHHH | soluble
